Columns and labels:
[1] = Saturation mutagenesis of SEQ ID NO:109: dicamba decarboxylation activity of point mutants (carbon dioxide released); conditions: decarboxylation activity (carbon dioxide released) of point mutant compared with unmutated backbone protein; backbone SEQ ID NO: 109
[2] = Shuffled variant libraries: 14CO2 capturing assay in 384-well format; conditions: decarboxylation activity (carbon dioxide released) compared with unmutated backbone protein SEQ ID NO 133 (DDEC0201)

Molecule	Fold Activity [1]	Fold Activity [2]
202 (protein, Dicamba decarboxylase variant) MAQGKVALEEHFAIPETLQDSAGFVPGDYWKELQHRLLDIQDTRLKLMDAHGIETMILSLAAPGVQAIPDRRKAIEIARRANDFLAEECAKRPDRFLAFAALPLQDPDAATEELQRCVNDLGFVGALVNGFSQEGDGQTPLYYDLPQYRPFWGEVEKLDVPFYLHPRNPLPQDSRIYDGHPWLLGPTWAFAQETAVHALRLMASGLFDEHPRLNIILGHMGEGLPYMMYRIDHRIAWVHEPPRYPAKRRFMDYFNENFHITTSGNFRTQTLIDAILEIGADRILFSTDWPFENIDHAADWFNATSIAEADRLKIGRTNARRLFKLDLD	1.4	2.2
205 (protein, Dicamba decarboxylase variant) MAQGKVALEEHFAIPETLNDSAGFVPGDYWKELQHRLLDIQDTRLKLMDAHGIETMILSLAAPAVQAIPDRRKAIEIARRANDFLAEECAKRPDRFLAFAALPLQDPDAATEELQRCVNDLGFVGALVNGFSQEGDGQTPLYYDLPQYRPFWGEVEKLDVPFYLHPRNPLPQDSRIYDGHPWLLGPTWAFAQETAVHALRLMASGLFDEHPRLNIILGHMGEGLPYMMYRIDHRIAWVHEPPRYPAKRRFMDYFNENFHITTSGNFRTQTLIDAILEIGADRILFSTDWPFENIDHAAAWFNATSIAEADRVKIGRTNARRLFKLDGD	1.3	1.0
206 (protein, Dicamba decarboxylase variant) MAQGKVALEEHFAIPETLQDSAGFVPGDYWKELQHRLLDIQDTRLKLMDAHGIETMILSLAAPAVQAIPDRRKAIEIARRANDFLAEECAKRPDRFLAFAALPMQDVDAASEELQRCVNDLGFVGALVNGFSQEGDGQTPLYYDLPQYRPFWGEVEKLDVPFYLHPRNPLPQDSRIYDGHPWLLGPTWAFAQETAVHALRLMASGLFDEHPRLNIILGHLGEGLPYMMYRIDHRIAWVHEPPRYPAKRRFMDYFNENFHITTSGNFRTQTLIDAILEIGADRILFSTDWPFENIDHAAAWFNATSIAEADRLKIGRTNARRLFKLDLD	1.7	1.3
204 (protein, Dicamba decarboxylase variant) MAQGKVALEEHFAIPETLQDSAGFVPGDYWKELQHRLLDIQDTRLKLMDAHGIETMILSLAAPAVQAIPDRVKAIEIARRANDMLAEECAKRPDRFLAFAALPLQDPDAATEELQRTVNDLGFVGALVNGFSQEGDGQTPLYYDLPQYRPFWGEVEKLDVPFYLHPRNPLPQDSRIYDGHPWLLGPTWAFAQETAVHALRLMASGLFDEHPRLNIILGHMGEGLPYMMYRIDHRIAWVHEPPRYPAKRRFMDYFNENFHITTSGNFRTQTLIDAILEIGADRILFSTDWPFENIDHAADWFNATSIAEADRLKIGRTNARRLFKLDGD	2	1.0
203 (protein, Dicamba decarboxylase variant) MAQGKVALEEHFAIPETLQDSAGFVPGDYWKELQHRLLDIQDTRLKLMDAHGIETMILSLAAPAVQAIPDRRKAIEIARRANDFLAEECAKRPDRFLAFAALPLQDPDAATEELQRCVNDLGFVGALVNGFSVEGDGQTPLYYDLPQYRPFWGEVEKLDVPFYLHPRNPLPQDSRIYDGHPWLLGPTWAFAQETAVHALRLMASGLFDEHPRLNIILGHMGEGLPYMMYRIDHRIAWVHEPPRYPAKRRFMDYFLENFHITTSGNFRTQTLIDAILEIGADRILFSTDWPFENIDHAADWFNATSIAEADRLKIGRTNARRLFKLDGA	1.1	2.3

— patent publication US20160053277A1, “Compositions Having Dicamba Decarboxylase Activity and Methods of Use” (PIONEER HI-BRED INTERNATIONAL, INC., priority 2013, published 2016)
